From patent US20090035322A1 (Regeneron, published 2009) come the findings set out here.

Substitutions are numbered along the chain they refer to. Like-named read-outs stand apart in the source and are kept apart here.

Experiment [1] has as its target T1, human CD20 (human, UniProt P11836 1-297).
T1 sequence: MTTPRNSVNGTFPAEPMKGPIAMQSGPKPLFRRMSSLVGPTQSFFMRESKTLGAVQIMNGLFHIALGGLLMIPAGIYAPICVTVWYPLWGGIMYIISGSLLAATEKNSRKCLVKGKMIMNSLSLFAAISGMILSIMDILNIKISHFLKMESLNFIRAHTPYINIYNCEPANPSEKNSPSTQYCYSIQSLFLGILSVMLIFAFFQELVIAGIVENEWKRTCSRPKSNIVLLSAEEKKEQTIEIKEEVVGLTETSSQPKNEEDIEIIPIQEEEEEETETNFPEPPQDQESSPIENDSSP
Briefly: cell-based or functional assay.

For experiment [2], the target named is T2, mutant human CD20 #2 (N163D) (human, UniProt P11836 1-297).
T2 construct: Stably expressed on MG87 cells
T2 sequence: T1 sequence with N163D
Briefly: FACS, mutant-hCD20 MG87 cells; 100%=best antibody. The protocol: (§1) Briefly, approximately 1×10⁶ cells from each stably transfected cell line expressing a mutant human CD20 were collected and incubated with each anti-human antibody, at 10 μg/ml, on ice for 1 hr, followed by incubation with APC-conjugated goat anti-human IgG (Jackson Immunolabs), at 10 μg/ml, on ice for 45 min. For each antibody, binding to each mutant human CD20 was assessed by flow cytometry.

In experiment [3] the target is T3, mutant human CD20 #9 (N163D, N166D) (human, UniProt P11836 1-297).
T3 construct: Stably expressed on MG87 cells
T3 chain: T1 sequence with N163D, N166D
The experiment can be described thus: FACS, mutant-hCD20 MG87 cells; 100%=best antibody. As for the experimental part: as §1
(In general: Flow cytometry measures light scatter and fluorescence of single cells or particles in a stream.)

In experiment [4] the target is T4, mutant human CD20 #7 (Y77F, N163D) (human, UniProt P11836 1-297).
T4 construct: Stably expressed on MG87 cells
T4 chain: T1 sequence with Y77F, N163D
The experiment can be described thus: FACS, mutant-hCD20 MG87 cells; 100%=best antibody. As for the experimental part:
as §1

The target of experiment [5] is T5, mutant human CD20 #4 (N166D) (human, UniProt P11836 1-297).
T5 construct: Stably expressed on MG87 cells
T5 sequence: T1 sequence with N166D
Briefly: FACS, mutant-hCD20 MG87 cells; 100%=best antibody. The protocol:
as §1

The target in experiment [6] is T1, human CD20. The experiment can be described thus: flow cytometry, hCD20-transfected MG87 cells. The protocol:
Briefly, parental MG87 and human CD20-transfected MG87 cells were incubated for 30 min at 4° C. with each of the 15 human antibodies and the two control antibodies, followed by incubation with PE-conjugated anti-human IgG antibody. Binding was assessed by flow cytometry. Fluorescence intensities were compared with binding to the parental cell line and control isotype-matched sample.

In experiment [7] the target is T1, human CD20. Briefly: cell-based or functional assay. The source holds these as a separate data set.

B1: 6B9-4 (antibody, V domains shown)
VH: EEQLVESGGDLVQPGRSLRLSCAASGFTFHDYTMHWVRQAPGKGLEWVSGISWNSGSIGYADSVKGRFTISRDNAKNSLYLQMNSLRIEDTALYYCAKDPSYGSGSYYYYYGMDVWGQGTTVTVSS
VL: EIVLTQSPATLSLSPGERATLSCRASQSVSSYLVWYQQRPGQAPRLLIYEASNRATGIPARFSGSGSGTDFTLTISSLESEDFAVYYCQQRSNWPLTFGGGTKVEIK
notes: Fully human IgG, constant region not specified; also called 6B9-4N
As to B1, the “% Cytotoxicity (CDC, Daudi), 0 hour” value with human CD20 [1] is 98.1%. Further, the “% Cytotoxicity (CDC, Daudi), 1 hour” value in the experiment with human CD20 [1] worked out at 98.5%. Besides, in the experiment with human CD20 [1], the “% Cytotoxicity (CDC, Daudi), 6 hour” value came out at 97.5%. Further, the “Percent of Binding to Mutant Human CD20” value in experiment [2] was 3%; in experiment [3], 3%; in experiment [4], 2%; in experiment [5], 3%. Further, in the experiment with human CD20 [6], the “Total Mean Fluorescent Intensity” value was 2930.

B2: 3B9-10 (antibody, V domains shown)
VH: EVQLVESGGGLVQPGRSLRLSCVASGFTFNDYAMHWVRQAPGKGLEWVSVISWNSDSIGYADSVKGRFTISRDNAKNSLYLQMHSLRAEDTALYYCAKDNHYGSGSYYYYQYGMDVWGQGTTVTVSS
VL: EIVMTQSPATLSVSPGERATLSCRASQSVSSNLAWYQQKPGQAPRLLIYGTSTRATGIPARFSGSGSGTEFTLTISSLQSEDFAVYYCQQYNNWPLTFGGGTKVEIK
notes: Fully human IgG, constant region not specified; also called 3B9-10N
For B2, in the experiment with human CD20 [7], the “% Cytotoxicity (CDC, Daudi), 0 hour” value was 98.4%. The “% Cytotoxicity (CDC, Daudi), 1 hour” value with human CD20 [7] was 97.9%. The “% Cytotoxicity (CDC, Daudi), 6 hour” value with human CD20 [7] was 82.2%. The “Percent of Binding to Mutant Human CD20” value in experiment [2] worked out at 6%; in experiment [3], 4%; in experiment [4], 1%; in experiment [5] it was 40%. For the same molecule, the “Total Mean Fluorescent Intensity” value with human CD20 [6] is 2990.

B3: 3H7-6 (antibody, V domains shown)
VH: EVQLVESGGGLVQPGRSLRLSCAASGFTFYDYAMHWVRQAPGKGLEWVSGISWNSGYIGYADSVKGRFTISRDNAKNSLYLQMNSLRAEDTALYYCAKDNSYGKFYYGLDVWGQGTTVTVSS
VL: B2 VL with A19T, Q37L, T51A, T72I, L96I, G100Q, K103R, V104L
notes: Fully human IgG, constant region not specified; also called 3H7-6N
As to B3, the “% Cytotoxicity (CDC, Daudi), 0 hour” value with human CD20 [1] turned out to be 97.5%. Further, the “% Cytotoxicity (CDC, Daudi), 1 hour” value with human CD20 [1] came to 94%. Further, in the experiment with human CD20 [1], the “% Cytotoxicity (CDC, Daudi), 6 hour” value turned out to be 67.6%. The “Percent of Binding to Mutant Human CD20” value in experiment [2] amounted to 1%; in experiment [3], 3%; in experiment [4] it was 1%; in experiment [5] it was 4%. Further, in the experiment with human CD20 [6], the “Total Mean Fluorescent Intensity” value amounted to 3300.

B4: 9C3-8 (antibody, V domains shown)
VH: B2 VH with V23A, T28S, N30H, V50G, I58L, H84N, Y107H, Q111K
VL: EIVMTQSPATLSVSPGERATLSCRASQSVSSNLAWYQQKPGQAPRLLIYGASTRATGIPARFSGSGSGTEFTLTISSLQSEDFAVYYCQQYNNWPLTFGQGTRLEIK
notes: Fully human IgG, constant region not specified; also called 9C3-8N
As for B4, the “% Cytotoxicity (CDC, Daudi), 0 hour” value in the experiment with human CD20 [7] was found to be 98.7%. Further, the “% Cytotoxicity (CDC, Daudi), 1 hour” value in the experiment with human CD20 [7] was 98.5%. Also, the “% Cytotoxicity (CDC, Daudi), 6 hour” value with human CD20 [7] was found to be 76.9%. Moreover, the “Percent of Binding to Mutant Human CD20” value in experiment [2] came to 0%; in experiment [3] it was 3%; in experiment [4] it was 1%; in experiment [5], 22%. For the same molecule, the “Total Mean Fluorescent Intensity” value with human CD20 [6] was determined as 2910.

B5: 2C11-4 (antibody, V domains shown)
VH: EVQLVESGGGLVQPGRSLRLSCAASGFTFRDYAMHWVRQGPGKGLEWVSGISWNTDYIGYADSVKGRFTISRDNAKNSLYLQMNSLRPEDTALYYCAKDARYGRDNYYGMDVWGQGTTVTVSS
VL: EIVLTQSPATLSLSPGERATLSCRASQSVSRYLAWYQQKPGQAPRLLIHDASNRATGIPARFSGSGSGTDFTLTITSLEPEDFVVYYCQQRSDWPITFGQGTRLEIK
notes: Fully human IgG, constant region not specified; also called 2C11-4N
As for B5, the “% Cytotoxicity (CDC, Daudi), 0 hour” value in the experiment with human CD20 [7] turned out to be 29.1%. Moreover, in the experiment with human CD20 [7], the “% Cytotoxicity (CDC, Daudi), 1 hour” value was 14%. For the same molecule, in the experiment with human CD20 [7], the “% Cytotoxicity (CDC, Daudi), 6 hour” value amounted to 22.4%. Also, the “Percent of Binding to Mutant Human CD20” value in experiment [2] was 0%; in experiment [3] it was 3%; in experiment [4], 1%; in experiment [5], 31%. Besides, in the experiment with human CD20 [6], the “Total Mean Fluorescent Intensity” value was 2010.

B6: 9H4-12 (antibody, V domains shown)
VH: EVQLVESGGGLVQPGRSLRLSCAASGFTFDDYAMHWVRQVPGKGLEWVSGISWNSGSIGYADSVKGRFTISRDNAKNSLYLQMNSLRAEDTALYYCAKDMGYGNYYHYGMDVWGQGTTVTVSS
VL: B5 VL with E1D, R31S, H49C, N53H, G57R, T76S, V84A, D93N
notes: Fully human IgG, constant region not specified; also called 9H4-12N
For the molecule B6, the “% Cytotoxicity (CDC, Daudi), 0 hour” value with human CD20 [7] worked out at 43.2%. In addition, the “% Cytotoxicity (CDC, Daudi), 1 hour” value with human CD20 [7] was determined as 17.4%. Also, the “% Cytotoxicity (CDC, Daudi), 6 hour” value in the experiment with human CD20 [7] was 23.1%. Besides, the “Percent of Binding to Mutant Human CD20” value stood at 0% in experiment [2], 4% in experiment [3], 2% in experiment [4] and 0% in experiment [5]. The “Total Mean Fluorescent Intensity” value with human CD20 [6] worked out at 2040.

B7: 7E1-13 (antibody, V domains shown)
VH: EVQLVESGGGLVQPGRSLRLSCTASGFTFGDFPMHWVRQAPGKGLEWVSGITWNSGSIVYADSVKGRFTISRDNAKNSLYLQMNSLRTEDTALYYCAKDSHYGSGNFYYYYYGMDVWGQGTTVTVSS
VL: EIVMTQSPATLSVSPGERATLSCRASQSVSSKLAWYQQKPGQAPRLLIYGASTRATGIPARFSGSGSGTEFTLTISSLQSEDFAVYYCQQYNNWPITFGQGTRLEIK
notes: Fully human IgG, constant region not specified; also called 7E1-13N
Regarding B7, the “% Cytotoxicity (CDC, Daudi), 0 hour” value with human CD20 [7] stood at 98.1%. In addition, the “% Cytotoxicity (CDC, Daudi), 1 hour” value with human CD20 [7] was determined as 98.5%. For the same molecule, the “% Cytotoxicity (CDC, Daudi), 6 hour” value in the experiment with human CD20 [7] worked out at 89.3%. Further, the “Percent of Binding to Mutant Human CD20” value in experiment [2] was found to be 49%; in experiment [3], 4%; in experiment [4] it was 1%; in experiment [5], 84%. The “Total Mean Fluorescent Intensity” value with human CD20 [6] was found to be 3080.
